Measured values published in FireProtDB (doi:10.1110/ps.8.7.1530).

B1: PTS system mannose-specific EIIAB component, P69797 (parent)
chain: MTIAIVIGTHGWAAEQLLKTAEMLLGEQENVGWIDFVPGENAETLIEKYNAQLAKLDTTKGVLFLVDTWGGSPFNAASRIVVDKEHYEVIAGVNIPMLVETLMARDDDPSFDELVALAVETGREGVKALKAKPVEKAAPAPAAAAPKAAPTPAKPMGPNDYMVIGLARIDDRLIHGQVATRWTKETNVSRIIVVSDEVAADTVRKTLLTQVAPPGVTAHVVDVAKMIRVYNNPKYAGERVMLLFTNPTDVERLVEGGVKITSVNVGGMAFRQGKTQVNNAVSVDEKDIEAFKKLNARGIELEVRKVSTDPKLKMMDLISKIDK

Variants of: B1
Conditions: Escherichia coli (strain K12); pH 7.4; 22 °C; GdnHCl; Fluorescence; Sodium phosphate 20 mM; reversible: yes; structure 1PDO; whole UniProt chain shown

| Variant | denaturant midpoint (higher = more stable) | unfolding free energy |
| --- | --- | --- |
| MTIAIVIGTHGFAAEQLLKTAEMLLGEQENVGWIDFVPGENAETLIEKYNAQLAKLDTTKGVLFLVDTFGGSPFNAASRIVVDKEHYEVIAGVNIPMLVETLMARDDDPSFDELVALAVETGREGVKALKAKPVEKAAPAPAAAAPKAAPTPAKPMGPNDYMVIGLARIDDRLIHGQVATRWTKETNVSRIIVVSDEVAADTVRKTLLTQVAPPGVTAHVVDVAKMIRVYNNPKYAGERVMLLFTNPTDVERLVEGGVKITSVNVGGMAFRQGKTQVNNAVSVDEKDIEAFKKLNARGIELEVRKVSTDPKLKMMDLISKIDK [W12F W69F] | 2.1 M | 46 kJ/mol |
| MTIAIVIGTHGWAAEQLLKTAEMLLGEQENVGFIDFVPGENAETLIEKYNAQLAKLDTTKGVLFLVDTFGGSPFNAASRIVVDKEHYEVIAGVNIPMLVETLMARDDDPSFDELVALAVETGREGVKALKAKPVEKAAPAPAAAAPKAAPTPAKPMGPNDYMVIGLARIDDRLIHGQVATRWTKETNVSRIIVVSDEVAADTVRKTLLTQVAPPGVTAHVVDVAKMIRVYNNPKYAGERVMLLFTNPTDVERLVEGGVKITSVNVGGMAFRQGKTQVNNAVSVDEKDIEAFKKLNARGIELEVRKVSTDPKLKMMDLISKIDK [W33F W69F] | 1.8 M | 22 kJ/mol |
| MTIAIVIGTHGFAAEQLLKTAEMLLGEQENVGFIDFVPGENAETLIEKYNAQLAKLDTTKGVLFLVDTWGGSPFNAASRIVVDKEHYEVIAGVNIPMLVETLMARDDDPSFDELVALAVETGREGVKALKAKPVEKAAPAPAAAAPKAAPTPAKPMGPNDYMVIGLARIDDRLIHGQVATRWTKETNVSRIIVVSDEVAADTVRKTLLTQVAPPGVTAHVVDVAKMIRVYNNPKYAGERVMLLFTNPTDVERLVEGGVKITSVNVGGMAFRQGKTQVNNAVSVDEKDIEAFKKLNARGIELEVRKVSTDPKLKMMDLISKIDK [W12F W33F] | 2.2 M | 45.1 kJ/mol |
| MTIAIVIGTHGWAAEQLLKTAEMLLGEQENVGFIDFVPGENAETLIEKYNAQLAKLDTTKGVLFLVDTWGGSPFNAASRIVVDKEHYEVIAGVNIPMLVETLMARDDDPSFDELVALAVETGREGVKALKAKPVEKAAPAPAAAAPKAAPTPAKPMGPNDYMVIGLARIDDRLIHGQVATRWTKETNVSRIIVVSDEVAADTVRKTLLTQVAPPGVTAHVVDVAKMIRVYNNPKYAGERVMLLFTNPTDVERLVEGGVKITSVNVGGMAFRQGKTQVNNAVSVDEKDIEAFKKLNARGIELEVRKVSTDPKLKMMDLISKIDK [W33F] | 2.2 M | 35 kJ/mol |
| MTIAIVIGTHGFAAEQLLKTAEMLLGEQENVGWIDFVPGENAETLIEKYNAQLAKLDTTKGVLFLVDTWGGSPFNAASRIVVDKEHYEVIAGVNIPMLVETLMARDDDPSFDELVALAVETGREGVKALKAKPVEKAAPAPAAAAPKAAPTPAKPMGPNDYMVIGLARIDDRLIHGQVATRWTKETNVSRIIVVSDEVAADTVRKTLLTQVAPPGVTAHVVDVAKMIRVYNNPKYAGERVMLLFTNPTDVERLVEGGVKITSVNVGGMAFRQGKTQVNNAVSVDEKDIEAFKKLNARGIELEVRKVSTDPKLKMMDLISKIDK [W12F] | 2.6 M | 59 kJ/mol |
| MTIAIVIGTHGWAAEQLLKTAEMLLGEQENVGWIDFVPGENAETLIEKYNAQLAKLDTTKGVLFLVDTFGGSPFNAASRIVVDKEHYEVIAGVNIPMLVETLMARDDDPSFDELVALAVETGREGVKALKAKPVEKAAPAPAAAAPKAAPTPAKPMGPNDYMVIGLARIDDRLIHGQVATRWTKETNVSRIIVVSDEVAADTVRKTLLTQVAPPGVTAHVVDVAKMIRVYNNPKYAGERVMLLFTNPTDVERLVEGGVKITSVNVGGMAFRQGKTQVNNAVSVDEKDIEAFKKLNARGIELEVRKVSTDPKLKMMDLISKIDK [W69F] | 2.1 M | 26 kJ/mol |
